Experimental data reported in patent US9435807B2, “Use of leucyl tRNA synthetase” (Medicinal Bioconvergence Research Center, priority 2011, dated 2016).

Columns and labels:
[1] = molecular target: T1, RagD GTPase (Homo sapiens, UniProt Q9NQL2); assay: In vitro GTPase assay; format: biochemical; conditions: LRS (759-1176 a.a) fragment incubated with RagD, 37° C.
T1 construct: made in house; host or cells: LRS fragment: E. coli BL21(DE3), pET 16a
Description: In FIG. 7a, the indicated amounts of Histagged LRS (759-1176 a.a) fragment were incubated with 0.15 pM RagD for 20 min at 37° C. The error bars represent mean S.D. (n=3).
In FIG. 7b, his-tagged LRS fragments (0.3 μM) were incubated with RagD for the indicated times. The error bars represent mean S.D. (n=3).
In FIG. 7d, the effects of LRS WT and mutants on GTP hydrolysis of RagD is shown. Purified LRS WT (759-1176 a.a) fragment or mutants (H844A, R845A) fragments were incubated with RagD for 20 min at 37° C. The error bars represent mean S.D. (n=3).
GTPase assays were conducted in assay buffer (20 mM piperazine-N,N9-bis(2-ethanesulfonic acid), 20 mM HEPES, 5 mM MgCl2, 125 mM NaCl, 5 mM KCl at pH 7.0, 0.5 mM GTP) containing 0.1% bovine serum albumin in a final volume of […] using GTPase assay kit (Innova Biosciences) according to manufacturer's instructions.

[2] = molecular target: T2, LRS-(1-1176) / RagD binding (Homo sapiens, UniProt Q9NQL2); assay: ELISA for binding between LRS and RagD; conditions: GST-RagD on plate coated with His-LRS-(1-1176), fragment added during incubation
T2 construct: Purified GST-RagD was incubated with His-LRS-(1-1176) coated on a plate; made in house; host or cells: E. coli BL21(DE3) for His-LRS (pET 16a); E. coli BL21 for GST-RagD (pGEX4T3)
T2 sequence (Q9NQL2 whole entry, the tested form may be a part): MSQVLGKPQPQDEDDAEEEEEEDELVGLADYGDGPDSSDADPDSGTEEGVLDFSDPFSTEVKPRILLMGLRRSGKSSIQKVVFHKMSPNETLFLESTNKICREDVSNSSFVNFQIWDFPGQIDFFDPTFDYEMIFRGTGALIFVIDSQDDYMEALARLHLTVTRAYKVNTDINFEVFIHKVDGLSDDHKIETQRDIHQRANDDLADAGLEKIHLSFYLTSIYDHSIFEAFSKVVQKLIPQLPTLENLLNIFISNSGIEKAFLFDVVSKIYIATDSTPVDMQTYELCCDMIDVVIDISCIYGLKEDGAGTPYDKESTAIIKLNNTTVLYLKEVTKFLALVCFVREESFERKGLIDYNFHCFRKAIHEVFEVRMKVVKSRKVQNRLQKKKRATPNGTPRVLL
Description: FIGS. 13a and 13b show ELISA assay results for measuring binding affinity between LRS and RagD.
In FIG. 13b, the comparison result of binding affinity for control (GST), RagD and RagD+LRS-(759-1176) on a 96 well plate coated with LRS-(1-1176) is shown.
First, each fragment of LRS was synthesized by PCR amplification using the cDNA of LRS as a template and a primer set (Table 1) specific for each fragment. The PCR amplification was performed under the following conditions: predenaturation of the template DNA at 95° C. for 2 min; and then 30 cycles, each consisting of 30 sec at 95° C., 30 sec at 56° C., and 3 min and 30 sec at 72° C.; followed by final extension at 72° C. for 10 min. Each of the PCR products was digested with NdeI and BamHI and ligated into a pET 16a vector (Novagen) digested with the same restriction enzymes. E. coli BL21(DE3) cells were transformed with the vector and cultured to induce the expression of peptides. Each peptide expressed as a His-tag fusion protein was purified by Ni-chelating agarose. […]
A fragment of RagD was synthesized by PCR amplification using the cDNA of […] as a template and a primer set (Table 1) specific for each fragment. […] Each peptide expressed as a GST-tag fusion protein was purified by GSH agarose. […]

T1 sequence (Q9NQL2 whole entry, the tested form may be a part): as above

GTP hydrolysis by RagD GTPase (GAP activity) [1] | binding between RagD and LRS-(1-1176) [2] | binding between RagD and LRS-(1-1176) ([2]; listed as LRS-(759-1176)) | Molecule
lost their GAP activity | – | – | R845A: LRS (759-1176 a.a) fragment with alanine mutation R845A in the putative GAP motif (protein, UniProt Q9P2J5 759-1176, looked up, variant R845A) MADAGILRLYTWVEWVKEMVANWDSLRSGPASTFNDRVFASELNAGIIKTDQNYEKMMFKEALKTGFFEFQAAKDKYRELAVEGMHAELVFRFIEVQTLLLAPFCPHLCEHIWTLLGKPDSIMNASWPVAGPVNEVLIHSSQYLMEVTHDLRLRLKNYMMPAKGKKTDKQPLQKPSHCTIYVAKNYPPWQHTTLSVLRKHFEANNGKLPDNKVIASELGSMPELKKYMKKVMPFVAMIKENLEKMGPRILDLQLEFDEKAVLMENIVYLTNSLELEHIEVKFASEAEDKIREDCCPGKPLNVFRIEPGVSVSLVNPQPSNGHFSTKIEIRQGDNCDSIIRRLMKMNRGIKDLSKVKLMRFDDPLLGPRRVPVLGKEYTEKTPISEHAVFNVDLMSKKIHLTENGIRVDIGDTIIYLVH
lost their GAP activity | – | – | H844A: LRS (759-1176 a.a) fragment with alanine mutation H844A in the putative GAP motif (protein, UniProt Q9P2J5 759-1176, looked up, variant H844A) MADAGILRLYTWVEWVKEMVANWDSLRSGPASTFNDRVFASELNAGIIKTDQNYEKMMFKEALKTGFFEFQAAKDKYRELAVEGMARELVFRFIEVQTLLLAPFCPHLCEHIWTLLGKPDSIMNASWPVAGPVNEVLIHSSQYLMEVTHDLRLRLKNYMMPAKGKKTDKQPLQKPSHCTIYVAKNYPPWQHTTLSVLRKHFEANNGKLPDNKVIASELGSMPELKKYMKKVMPFVAMIKENLEKMGPRILDLQLEFDEKAVLMENIVYLTNSLELEHIEVKFASEAEDKIREDCCPGKPLNVFRIEPGVSVSLVNPQPSNGHFSTKIEIRQGDNCDSIIRRLMKMNRGIKDLSKVKLMRFDDPLLGPRRVPVLGKEYTEKTPISEHAVFNVDLMSKKIHLTENGIRVDIGDTIIYLVH

Molecule | GTP hydrolysis by RagD GTPase (GAP activity) [1] | binding between RagD and LRS-(1-1176) [2] | binding between RagD and LRS-(1-1176) ([2]; listed as LRS-(759-1176))
His-LRS-(759-1176): His-tagged fragment of leucyl tRNA synthetase, residues 759-1176 (protein, left off: small tags and cut ends) MADAGILRLYTWVEWVKEMVANWDSLRSGPASTFNDRVFASELNAGIIKTDQNYEKMMFKEALKTGFFEFQAAKDKYRELAVEGMHRELVFRFIEVQTLLLAPFCPHLCEHIWTLLGKPDSIMNASWPVAGPVNEVLIHSSQYLMEVTHDLRLRLKNYMMPAKGKKTDKQPLQKPSHCTIYVAKNYPPWQHTTLSVLRKHFEANNGKLPDNKVIASELGSMPELKKYMKKVMPFVAMIKENLEKMGPRILDLQLEFDEKAVLMENIVYLTNSLELEHIEVKFASEAEDKIREDCCPGKPLNVFRIEPGVSVSLVNPQPSNGHFSTKIEIRQGDNCDSIIRRLMKMNRGIKDLSKVKLMRFDDPLLGPRRVPVLGKEYTEKTPISEHAVFNVDLMSKKIHLTENGIRVDIGDTIIYLVH | enhanced GTP hydrolysis by RagD GTPase in dose- and time-dependent manner | inhibited | decreased the binding affinity
